These results are taken from US20230144459A1 (published 2023).

Where no end group is shown, it is not given here.

In this test the target is T1, BSA conjugated CD28 stalk region dimeric peptide (also: dimer, conjugated to BSA via C-terminal Lys).
T1 peptide: GKHLCPSPLFPGPSKPK
Description: ELISA. In general terms: An ELISA detects its analyte on a solid surface through an enzyme-linked reagent.

B1: antibody M9 (antibody, V domains shown)
VH: DVKLVESGGGLVKLGGSLKLSCVASGFTFSSYYMSWVRQTPEKRLEWVATISDGGDNTYYAGTVTGRFTISRDFAKNTLYLQMNSLTSEDTAVYYCARIHWPYYFDSWGQGTTLTVSS
VL: QFVLSQSPAILSASPGEMLTMTCRASSSVSYMNWYQQKPGSSPKPWIYATSDLASGVPARFSGSGSGTSYSLTISRVEAEDAATYYCQQWSSHPPTFGGGTKLEIR
B1 returned an IC50 of 9 ng/mL.

As usually defined, the IC50 is the midpoint of a concentration-inhibition curve.
